Assay results taken from patent US12662541B2, “Antibody-drug conjugates against the receptor tyrosine kinase EphA5” (Rutgers, The State University of New Jersey, priority 2021, dated 2026).

Experiments:
EphA5 antigen [1] = target: T1, EphA5 antigen (Homo sapiens, UniProt P54756); assay: kd (1/s)
T1 construct: purchased R and D systems 3036-A5
Procedure: (§1) Table printed on a drawing sheet, FIG. 19
(§2) Head of the field: kd (1/s)
(§3) The patent's description of the figure: FIG. 19 is a table illustrating the Multi-cycle kinetic parameters of chimeric (VH0/VK0) and humanized variants (tested as purified proteins) binding to EphA5 antigen as determined using the Biacore T200. The relative KD was calculated by dividing the KD of the humanized variant by that of the VH0VK0 (first row) assayed in the same experiment. […]
(§4) Where the first naming reader finds the target: description_of_the_figure: humanized variants (tested as purified proteins) binding to EphA5 antigen as determined using the Biacore T200

rhEphA5 antigen [2] = target: T2, rhEphA5 antigen (Homo sapiens, UniProt P54756); assay: KD (M)
T2 construct: purchased R and D systems 3036-A5
Procedure: (§5) Table printed on a drawing sheet, FIG. 13
(§6) Head of the field: KD (M)
(§7) The patent's description of the figure: FIG. 13 is a table illustrating the single cycle kinetic parameters of chimeric (VH0/VK0) and humanized 11C12 variants (tested as cell culture supernatants) binding to rhEphA5 antigen as determined using the Biacore T200. The relative KD was calculated by dividing the KD of the humanized variant by that of the VH0/VK0 (top row) assayed in the same experiment. The variants marked with ‘*’ have KD values that are within two-fold of, or are better than, the chimeric antibody. The chimeric and selected variants marked in ‘#’ were identified as the main leads for purification. […]
(§8) Where the first naming reader finds the target: description_of_the_figure: humanized 11C12 variants (tested as cell culture supernatants) binding to rhEphA5 antigen as determined using the Biacore T200

EphA5 antigen [3] = target: T1, EphA5 antigen; assay: ka (1/Ms)
Procedure: as §1
(§9) Head of the field: ka (1/Ms)
as §3, §4

EphA5 antigen [4] = target: T1, EphA5 antigen; assay: KD (M)
Procedure: as §1, §6, §3, §4

rhEphA5 antigen [5] = target: T2, rhEphA5 antigen; assay: kd (1/s)
Procedure: as §5, §2, §7, §8

[6] = target: T3, H460 cell line stably expressing EphA5 (Homo sapiens, UniProt P54756); assay: Flow cytometry cell binding, H460 cells; type: cell-based; details: from 10 μg/ml, four-fold seven point dilution
T3 construct: endogenous in cells; host or cells: H460 human lung carcinoma cells (provided by Rutgers)
Procedure: (§10) A H460 cell line stably expressing EphA5 (provided by Rutgers) was used, alongside H226 cells as a negative control, to test for antibody binding in a flow cytometry assay. The cell lines were first assessed for target expression using 10 μg/ml of the murine 11C12 provided by Rutgers) and MolgG1 non-binging control (Biolegend, California, US). Goat anti-mouse Alexa Fluor 647 (Thermo Fisher, Loughborough, UK) was used for antibody detection.
(§11) For cell binding assays, both cell lines were resuspended in FACS buffer (PBS+1% BSA+0.1% sodium azide) and seeded in 96 well U bottom plates at 1×105 (100 μl) cells per well. The chimeric and six purified humanized variants were tested in the assay alongside the 11C12 murine positive control, MolgG1 and HulgG1 non-binding controls. Samples were prepared at a starting concentration of 10 μg/ml in FACS buffer and underwent a four-fold seven point serial dilution for testing with H460 cells and a three-fold three point serial dilution for the H226 cells. […] Median fluorescence intensity (MFI) was measured using an Attune N×T Flow Cytometer (Thermo Fisher, Loughborough, UK) and 10,000 gated events were acquired per sample. For data analysis, live cell populations were gated based on the forward and side scatter dot plot allowing the Alexa Fluor 647 MFI values to be measured in the RL1 channel.

H226 cells (EphA5−) = assay: Flow cytometry cell binding, H226 negative control cells; type: cell-based, human; details: from 10 μg/ml, three-fold three point dilution
Procedure: as §10, §11

rhEphA5 antigen [7] = target: T2, rhEphA5 antigen; assay: ka (1/Ms)
Procedure: as §5, §9, §7, §8

[8] = Thermal ramp stability (UNcle biostability platform, Sypro Orange and SLS); type: physicochemical
Description: Thermal ramp stability experiments (Tm and Tagg) are well established methods for ranking proteins and formulations for stability. A protein's denaturation profile provides information about its thermal stability and represents a structural ‘fingerprint’ for assessing structural and formulation buffer modifications. A widely used measure of the thermal structural stability of a protein is the temperature at which it unfolds from the native state to a denatured state. For many proteins, this unfolding process occurs over a narrow temperature range and the mid-point of this transition is termed ‘melting temperature’ or ‘Tm’. To determine the melting temperature of a protein, UNcle measures the fluorescence of Sypro Orange (which binds to exposed hydrophobic regions of proteins) as the protein undergoes conformational changes.
Samples for each variant were formulated in PBS and Sypro Orange at a final concentration of 1 mg/mL. […] Samples were subjected to a thermal ramp from 25-95° C., with a ramp rate of 0.3° C./minute and excitation at 473 nm. Full emission spectra were collected from 250-720 nm, and the area under the curve between 510-680 nm was used to calculate the inflection points of the transition curves (Tonset and Tm). Monitoring of static light scattering (SLS) at 473 nm allowed the detection of protein aggregation, and Tagg (onset of aggregation) was calculated from the resulting SLS profiles. Thermal stability values determined lie in a broad range from 57.9 to 69.6° C. (Tm1), 55.1 to 65.2° C. (Tonset) and 65.6 to 70.2° C. (Tagg) with the humanized leads generally showing improved profiles when compared to the chimeric antibody. […] All humanized antibodies appear to have a higher Tm1, Tonset and Tagg compared to the chimeric antibody.

rhEphA5 antigen [9] = target: T2, rhEphA5 antigen; assay: Multi-cycle kinetic analysis (Biacore T200) of purified antibodies; type: binding
Procedure: In order to assess the binding of the six lead humanized variants to rhEphA5 antigen, multi-cycle kinetic analysis (FIG. 68) was performed on purified material. Kinetic experiments were performed at 25° C. on a Biacore T200 running Biacore T200 Control software V2.0.1 and Evaluation software V3.0 (GE Healthcare, Uppsala, Sweden).
HBS-P+ (GE Healthcare, Uppsala, Sweden), supplemented with 1% BSA w/v (Sigma, Dorset, UK) was used as running buffer as well as for ligand and analyte dilutions. Purified lead antibodies were diluted to 0.5 μg/mL in running buffer and at the start of each cycle, loaded onto Fc2, Fc3 and Fc4 of an anti-human IgG CMS sensor chip (GE Healthcare, Little Chalfont, UK). Antibodies were captured at a flow rate of 10 μl/min to give an immobilization level (RL) of 50 RU. The surface was then allowed to stabilize.
Multi-cycle kinetic data was obtained using recombinant EphA5 as the analytes injected at a flow rate of 30 μl/min to minimize any potential mass transfer effects. A five point, three-fold dilution range from 1.11 nM to 270 nM of EphA5 was prepared in running buffer. For each concentration, the association phases were monitored for 210 seconds and the dissociation phase was measured for 900 seconds. Regeneration of the sensor chip surface was conducted between cycles using two injections of 3 M MgCl2. […]
Target sequence in this assay (P54756 25-573 limits assumed): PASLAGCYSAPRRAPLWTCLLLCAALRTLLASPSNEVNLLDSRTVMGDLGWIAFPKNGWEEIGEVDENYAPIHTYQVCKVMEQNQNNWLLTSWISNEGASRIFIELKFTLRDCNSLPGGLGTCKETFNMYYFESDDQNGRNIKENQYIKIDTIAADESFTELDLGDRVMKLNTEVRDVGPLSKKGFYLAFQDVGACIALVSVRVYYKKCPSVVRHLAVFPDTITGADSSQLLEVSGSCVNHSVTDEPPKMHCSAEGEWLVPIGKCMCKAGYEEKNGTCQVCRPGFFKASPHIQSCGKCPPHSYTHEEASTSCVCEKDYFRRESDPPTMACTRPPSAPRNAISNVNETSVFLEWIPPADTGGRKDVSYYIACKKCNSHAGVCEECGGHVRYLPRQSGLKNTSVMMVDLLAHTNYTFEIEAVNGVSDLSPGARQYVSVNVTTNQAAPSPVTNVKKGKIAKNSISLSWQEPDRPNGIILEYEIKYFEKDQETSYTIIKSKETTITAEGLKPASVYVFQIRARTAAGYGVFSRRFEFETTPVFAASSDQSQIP

T3 sequence (P54756 25-1037): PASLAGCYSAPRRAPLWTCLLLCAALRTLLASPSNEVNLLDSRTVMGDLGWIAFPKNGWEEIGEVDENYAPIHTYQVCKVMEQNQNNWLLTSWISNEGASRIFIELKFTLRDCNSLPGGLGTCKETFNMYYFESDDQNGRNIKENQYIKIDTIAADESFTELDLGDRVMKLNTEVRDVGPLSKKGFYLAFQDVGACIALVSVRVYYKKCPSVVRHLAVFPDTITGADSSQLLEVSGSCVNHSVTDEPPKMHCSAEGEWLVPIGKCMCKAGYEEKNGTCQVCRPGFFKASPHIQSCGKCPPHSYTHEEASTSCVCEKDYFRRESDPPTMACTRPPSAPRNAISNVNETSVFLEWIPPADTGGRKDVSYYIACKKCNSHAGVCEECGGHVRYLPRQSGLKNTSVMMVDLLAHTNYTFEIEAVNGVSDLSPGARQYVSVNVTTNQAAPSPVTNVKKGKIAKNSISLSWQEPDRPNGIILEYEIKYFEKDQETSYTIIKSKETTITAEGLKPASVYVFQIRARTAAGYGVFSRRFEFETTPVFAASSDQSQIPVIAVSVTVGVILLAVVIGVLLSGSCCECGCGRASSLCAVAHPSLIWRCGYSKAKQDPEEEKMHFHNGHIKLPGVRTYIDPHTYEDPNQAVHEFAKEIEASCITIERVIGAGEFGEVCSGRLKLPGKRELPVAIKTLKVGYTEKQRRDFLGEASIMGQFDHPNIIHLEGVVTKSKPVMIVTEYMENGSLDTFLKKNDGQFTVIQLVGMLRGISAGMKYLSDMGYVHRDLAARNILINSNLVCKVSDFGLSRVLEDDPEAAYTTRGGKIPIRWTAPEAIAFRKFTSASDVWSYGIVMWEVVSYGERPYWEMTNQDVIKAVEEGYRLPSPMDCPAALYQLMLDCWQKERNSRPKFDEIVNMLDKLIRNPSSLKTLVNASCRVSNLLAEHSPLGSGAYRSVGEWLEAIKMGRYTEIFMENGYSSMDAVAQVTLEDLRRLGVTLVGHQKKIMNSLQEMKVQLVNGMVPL

| Molecule | kd (EphA5 antigen [1]) | ka (EphA5 antigen [3]) | kd (rhEphA5 antigen [5]) | ka (rhEphA5 antigen [7]) | other results |
| --- | --- | --- | --- | --- | --- |
| VH3/VK4: humanized anti-EphA5 antibody, VH SEQ ID NO:4, VL SEQ ID NO:12; lead variant (antibody, V domains shown) VH: EVQLVESGGGLVQPGGSLKLSCAASGFTFSTFGIHWVRQAPGKGLEWVAYISGASTTIYYADTVKGRFTISRDNSKNTLYLQMNSLRSEDTAMYYCARYGTSFPYGLDYWGQGTLVTVSS VL: DIVMTQSPDSLAVSLGERATINCKSSQSVDYDGDSYMNWYQQKPGKAPKLLIYGASNLESGIPDRFSGSGSGTDFTLTISRLEPEDAASYYCQQSNEDPFTFGQGTKLEIK | 0.00142 s⁻¹ | 1.31e+06 M⁻¹ s⁻¹ |  |  | Kd (rhEphA5 antigen [2]): 0.956 nM; Kd (EphA5 antigen [4]): 1.08 nM |
| 11C12: anti-human EphA5 monoclonal murine antibody, parental and positive control (antibody, V domains shown) VH: EVTLKESGGGLVQPGGSRKLSCAASGFTFSTFGIHWVRQAPEKGLEWVAYISGASTTIYYADTVKGRFTISRDNPKNTLFLQMTSLRSEDTAMYYCARYGTSFPYGLDYWGQGTSVTVSS VL: DIVMTQSPGSLAVSLGQRATISCKASQSVDYDGDSYMNWYQQKPGQPPKLLIYGASNLESGIPARFSGSGSGTDFTLNIHPVEEEDAASYYCQQSNEDPFTFGSGTKLEIK |  |  |  |  | binding to H460 (EphA5+) cells, MFI dose response [6]: bound to the positive cell line in a concentration dependent manner; binding to H226 (EphA5 negative) cells (H226 cells (EphA5−)): no binding |
| VH0/VK0: chimeric antibody with murine 11C12 variable regions (SEQ ID NO:1, 8) and human IgG1/kappa constant regions (antibody, V domains shown, human IgG1/kappa constant regions) VH: EVTLKESGGGLVQPGGSRKLSCAASGFTFSTFGIHWVRQAPEKGLEWVAYISGASTTIYYADTVKGRFTISRDNPKNTLFLQMTSLRSEDTAMYYCARYGTSFPYGLDYWGQGTSVTVSS VL: DIVMTQSPGSLAVSLGQRATISCKASQSVDYDGDSYMNWYQQKPGQPPKLLIYGASNLESGIPARFSGSGSGTDFTLNIHPVEEEDAASYYCQQSNEDPFTFGSGTKLEIK |  |  | 0.00153 s⁻¹ | 1.15e-06 M⁻¹ s⁻¹ | Average Tm2 (° C.) [8]: 65.83 °C; Average Tonset (° C.) [8]: 55.1 °C; transitions detected in thermal unfolding [8]: two transitions (Tm1 and Tm2); Average Tm1 (° C.) ([8]; 1 mg/mL in PBS, ramp 25-95° C.): 57.9 °C; Average Tagg 473 (° C.) ([8]; SLS at 473 nm): 65.6 °C; Tm2 (° C.) ([8]; single replicate): 65.83 °C; RMAX (rhEphA5 antigen [9]; 1:1 model fit): 47.8; kd (rhEphA5 antigen [9]; 1:1 model, binding to EphA5): 0.0015 s⁻¹ |

The next lines start with results.

| kd (EphA5 antigen [1]) | ka (EphA5 antigen [3]) | kd (rhEphA5 antigen [5]) | ka (rhEphA5 antigen [7]) | Molecule | other results |
| --- | --- | --- | --- | --- | --- |
| 0.00132 s⁻¹ | 1.27e+06 M⁻¹ s⁻¹ | 0.0014 s⁻¹ |  | VH4/VK4: humanized anti-EphA5 antibody, VH SEQ ID NO:5, VL SEQ ID NO:12; lead variant (antibody, V domains shown) VH: EVQLVESGGGLVQPGGSLKLSCAASGFTFSTFGIHWVRQAPGKGLEWVAYISGASTTIYYADTVKGRFTISRDNSKNTLYLQMNSLRAEDTAVYYCARYGTSFPYGLDYWGQGTLVTVSS VL: DIVMTQSPDSLAVSLGERATINCKSSQSVDYDGDSYMNWYQQKPGKAPKLLIYGASNLESGIPDRFSGSGSGTDFTLTISRLEPEDAASYYCQQSNEDPFTFGQGTKLEIK |  |
| 0.00125 s⁻¹ | 1.34e+06 M⁻¹ s⁻¹ | 0.00123 s⁻¹ | 1.38e-06 M⁻¹ s⁻¹ | VH5/VK2: humanized anti-EphA5 antibody, VH SEQ ID NO:6, VL SEQ ID NO:10; lead variant (antibody, V domains shown) VH: EVQLVESGGGLVQPGGSLKLSCAASGFTFSTFGIHWVRQAPGKGLEWVAYISGASTTIYYADSVKGRFTISRDNSKNTLYLQMNSLRAEDTAVYYCARYGTSFPYGLDYWGQGTLVTVSS VL: DIVMTQSPDSLAVSLGERATINCKASQSVDYDGDSYMNWYQQKPGKAPKLLIYGASNLESGIPDRFSGSGSGTDFTLTISRLEPEDAASYYCQQSNEDPFTFGQGTKLEIK |  |
| 0.00128 s⁻¹ | 1.23e+06 M⁻¹ s⁻¹ | 0.00141 s⁻¹ | 1.35e-06 M⁻¹ s⁻¹ | VH5/VK4: humanized anti-EphA5 antibody, VH SEQ ID NO:6, VL SEQ ID NO:12; lead variant (antibody, V domains shown) VH: EVQLVESGGGLVQPGGSLKLSCAASGFTFSTFGIHWVRQAPGKGLEWVAYISGASTTIYYADSVKGRFTISRDNSKNTLYLQMNSLRAEDTAVYYCARYGTSFPYGLDYWGQGTLVTVSS VL: DIVMTQSPDSLAVSLGERATINCKSSQSVDYDGDSYMNWYQQKPGKAPKLLIYGASNLESGIPDRFSGSGSGTDFTLTISRLEPEDAASYYCQQSNEDPFTFGQGTKLEIK | Tagg ranking among the leads (SLS profiles) [8]: highest Tagg values |
